This note sets out measurements from US10626154B2, “Binding domains directed against GPCR:G protein complexes and uses derived thereof” (VIB VZW, priority 2011, dated 2020).

Data set [1] deals with T1, β2AR-365:Gs complex (UniProt P04896+P07550, E27Q/G16R/N187E).
T1 construct: A β2AR construct truncated after residue 365; Flag (M1); made in house; host or cells: High 5 insect cells (Gs subunits)
The data set can be described thus: analytical gel filtration: stability of the R:G complex in detergents. Particulars: for stability of the R:G complex in detergent: 48 hrs at 4° C. The method, then: (§1) FIG. 4: Stabilizing effect of MNG-3 on the R:G complex. Panel a) Analytical gel filtration of β2AR-365:Gs complexes purified in DDM (in black), MNG-3 (in blue), or two MNG-3 analogs (in red and green) following incubation for 48 hrs at 4° C. In contrast to DDM the R:G complexes are stable in the MNG detergents. Panel b) Effect of diluting unliganded purified β2AR in DDM or MNG-3 below the critical micelle concentration (CMC) of the detergent as assayed by 3H-dihydro alprenolol (3H-DHA) saturation binding.
One challenge for crystallogenesis was to prepare a stable β2AR:Gs complex in detergent solution. The β2AR and Gs couple efficiently in lipid bilayers, but not in detergents used to solubilize and purify these proteins (Example 1). […] Apyrase, a non-selective purine pyrophosphatase, was added to hydrolyze GDP released from Gs on forming a complex with the β2AR. The complex was subsequently purified by sequential antibody affinity chromatography and size exclusion chromatography. The stability of the complex was enhanced by exchanging it into a recently developed maltose neopentyl glycol detergent (NG-310, Anatrace) (Chae et al., 2010).

Data set [2] addresses T2, unliganded purified β2AR (Homo sapiens, UniProt P07550).
T2 construct: made in house
Kind of data set: 3H-DHA saturation binding after dilution of detergent below the CMC. Conditions: diluted 1000-fold below the CMC; DDM after 20 sec, MNG-3 after 24 hrs. The method, then: as §1

In data set [3] the target is T1, β2AR-365:Gs complex. The data set can be described thus: analytical gel filtration: effect of nucleotide analogs on the R:G complex. The format is biochemical. Particulars: for effect of nucleotides on the β2AR:Gs complex: 0.1 mM (FIG. 3A); for effect of phosphates resembling nucleotide phosphate groups on the complex: 5 mM. The method, then: FIGS. 3A-3G: Effect of nucleotide analogs, pH, and nanobodies on the stability of the β2AR:Gs complex. […] FIG. 3C, The pH limit was determined to guide the preparation of crystallization screens. For the same purpose the effect of ionic strength (data not shown) was determined using NaCl at various concentrations.
To maintain the high-affinity nucleotide-free state of the complex, apyrase (25 mU/ml, NEB) was added after 90 min to hydrolyze residual GDP released from Gαs upon binding to the receptor.

Data set [4] addresses T3, AVP:NT4LV2R:Gs complex (Arginine vasopressin receptor 2) (Homo sapiens, UniProt P30518).
T3 construct: The N-terminally fused T4L V2R construct (NT4L-V2R); His tag (only implied by nickel-NTA purification of the receptor); made in house; host or cells: Sf9 (NT4L-V2R); High 5 (Gs); E. coli WK6 (Nb35)
The data set can be described thus: SEC stability of the AVP:NT4LV2R:Gs complex. The format is biochemical. The method, then:
Arginine vasopressin (AVP), also known as vasopressin, argipressin or antidiuretic hormone, is a natural ligand that activates Arginine vasopressin receptor 2.
Formation of a stable complex (FIG. 19, Panel a) was accomplished by mixing His tagged Gs heterotrimer at approximately 90 μM concentration with AVP bound NT4LV2R (90 μM) and NB35 (100 μM) in 0.1 ml buffer (10 mM HEPES, pH 7.5, 100 mM NaCl, 0.1% DDM, 1 mM EDTA, 3 mM MgCl2, 10 μM AVP) and incubated for 2 hours at room temperature. Next, the AVP:NT4LV2R:Gs complex was purified in two successive affinity purification steps. The purification was monitored by SDS-PAGE (FIG. 19). First, the complex was applied on a Ni-NTA column after adding 300 μl of 1% MNG in 10 mM HEPES, pH 7.5, 100 mM NaCl buffer onto the reaction mix. Following extensive washing with buffer, the complex was eluted in 0.2% MNG, 10 mM HEPES, pH 7.5, 100 mM NaCl AVP 10 μM with 200 mM imidazole. Next the complex was applied on a FLAG-tag affinity column, washed extensively in the same buffer containing 0.01% MNG and eluted with the FLAG-peptide. […] This complex was further purified by SEC on a superdex200 column in 10 mM HEPES, pH 7.5, 100 mM NaCl, 0.01% MNG, 1 mM EDTA, 3 mM MgCl2, 1 μM AVP). […]

Data set [5] deals with T4L-β2AR.
The test system of data set [6] is β2AR:Gs:BI167107 ternary complex. The data set can be described thus: analytical gel filtration (size exclusion chromatography) of nanobody binding to the ternary complex. More on the design: species or system human β2AR; bovine Gαs, rat Gβ1, rat Gγ2. Particulars: for epitope on the Gs heterotrimer relative to Nb37 (size exclusion chromatography): forms R:G:Nb:Nb37 complex.

In data set [7] the test system is β2AR:Gs:BI167107 complex. Kind of data set: analytical size exclusion chromatography of the ternary complex in the presence and absence of GTPγS. It counts as biochemical, human β2AR; bovine Gαs, rat Gβ1, rat Gγ2. The method, then:
The mutual effects of Nbs and the non-hydrolyzable GTP analog GTPγS on the integrity of the agonist:β2AR:Gs ternary complex was analyzed by analytical size exclusion chromatography in the presence and absence of GTPγS.

For data set [8], the target named is T4, purified Gαs (Bos taurus, UniProt P04896).
T4 construct: made in house
Kind of data set: Bodipy-GTPγS-FL fluorescence nucleotide binding assay on Gαs. The format is biochemical, Bovine. Conditions: 100 nM Bodipy-GTPγS-FL, 1 μM purified Gαs, increasing concentrations of nanobody, 300 seconds. The method, then:
(§2) To investigate the effect of nanobodies (Nb35 and Nb37) on Gs alone, nanobodies were added together with bodipy-GTPγS-FL and various Gs protein preparations in 20 mM Tris-HCl, Ph 8.0, 3 mM MgCl2, 1 mM DTT in a final volume of 200 μL. Samples containing a heterotrimeric Gs protein also included 0.1% DDM. Bodipy-GTPγS-FL is a stable fluorescent GTP analog (λex≈470 nm, λem≈515 nm). Its fluorescence intensity increases upon G protein binding and Bodipy-GTPγS-FL can therefore be used for real-time measurements of nucleotide binding to G proteins (McEwen et al., 2001). Fluorescence was measured in a 96-well microtiter plate format on a M5 fluorescence plate reader (Molecular […]).
In a first experiment (FIG. 16), increasing amounts of Nb37 were incubated with 1 μM purified GαS and 100 nM Bodipy-GTPγS-FL and the fluorescence increase was measured on a short time scale (300 seconds) to minimize the accumulation of the hydrolysis product bodipy-phosphate (Jameson et al., 2005). The Gαs subunit of the heterotrimeric Gs protein was purified as described previously (Sunahara et al., 1997). […] In a similar experiment (FIG. 17), increasing amounts of Nb35 were incubated with 1 μM purified GαS and 100 nM Bodipy-GTPγS-FL.

Data set [9] addresses T5, purified Gsαβγ heterotrimer (UniProt P04896+P54311).
T5 construct: made in house; host or cells: High 5 insect cells
The data set can be described thus: Bodipy-GTPγS-FL fluorescence nucleotide binding assay on Gs heterotrimer. It counts as biochemical, bovine Gαs, rat Gβ1, rat Gγ2. Conditions: 100 nM Bodipy-GTPγS-FL, 1 μM purified Gsαβγ heterotrimer, increasing concentrations of nanobody. The method, then:
as §2
In another experiment (FIG. 18), increasing amounts of Nb35 were incubated with 1 μM of the purified Gs αβγ heterotrimer and 100 nM Bodipy-GTPγS-FL.

“Also recorded” adds a separate entry of the source. Where two headings read alike, the source gives them in different places.

On to `CCCCCCCCCCCCO[C@@H]1O[C@H](CO)[C@@H](O[C@H]2O[C@H](CO)[C@@H](O)[C@H](O)[C@H]2O)[C@H](O)[C@H]1O` [DDM, n-Dodecyl-β-D-maltoside], for which the “stability of the R:G complex in detergent” value in data set [1] is reported as “significant dissociation”. In addition, the “3H-DHA binding of β2AR after dilution of detergent” value in data set [2] is recorded as “loss in 3H-DHA binding”.
As to `Nc1nc2c(ncn2[C@@H]2O[C@H](COP(=O)(O)OP(=O)(O)O)[C@@H](O)[C@H]2O)c(=O)[nH]1` [GDP, guanosine diphosphate], the “effect of nucleotides on the β2AR:Gs complex” value in data set [3] is “disrupt the β2AR:Gs complex; also recorded: causes dissociation of the β2AR-365:Gs complex”.
The same measure, in the same setting: under `Nc1nc2c(ncn2[C@@H]2O[C@H](COP(=O)(O)OP(=O)(O)OP(=O)(O)O)[C@@H](O)[C@H]2O)c(=O)[nH]1` [GTP, guanosine triphosphate] stands “disrupt the β2AR:Gs complex”; under `Nc1nc2c(ncn2[C@@H]2O[C@H](COP(=O)(O)OP(=O)(O)OP(O)(O)=S)[C@@H](O)[C@H]2O)c(=O)[nH]1` [GTPγS], “causes dissociation of the β2AR-365:Gs complex”.
On to `CCCCCCCCCCC(CCCCCCCCCC)(CO[C@@H]1O[C@H](CO)[C@@H](O[C@H]2O[C@H](CO)[C@@H](O)[C@H](O)[C@H]2O)[C@H](O)[C@H]1O)CO[C@@H]1O[C@H](CO)[C@@H](O[C@H]2O[C@H](CO)[C@@H](O)[C@H](O)[C@H]2O)[C@H](O)[C@H]1O` [MNG-3], for which the “stability of the R:G complex in detergent” value in [1] is “substantially stabilize the complex; also recorded: stable”. Moreover, the “stability of the β2AR:Gs complex in detergent at room temperature” value in data set [1] (room temperature for 24 hours) is reported as “without any noticeable degradation”. Further, in [2], the “3H-DHA binding of β2AR after dilution of detergent” value is “maintained full ability to bind the radioligand”.
For the molecule `CCOc1ccc2c(c1)C1(CCC(OCCN3CCOCC3)CC1)C(=O)N2S(=O)(=O)c1ccc(C(=O)NC(C)(C)C)cc1OC` (stereo not shown) [SR121463, reference compound], in data set [4] (10 μM), the “effect of antagonist on the AVP:NT4LV2R:Gs complex” value is given as “disrupts the AVP:NT4LV2R:Gs complex”.
As for `CCCc1ccccc1OCC(O)CNC(C)C` (stereo not shown) [^3H-dihydro-alprenolol], the “effect of M96T and M98T receptor mutations on ligand affinity” value in data set [5] (data not shown) is on record as “did not affect ligand binding affinity”.
With `O=C(O)P(=O)(O)O` [forcarnet], the “effect of phosphates resembling nucleotide phosphate groups on the complex” value in data set [3] was “did not cause disruption of the complex”.
In the case of `CC(C)NCC(O)c1ccc(O)c(O)c1` (stereo not shown) [isoproterenol], the “effect of M96T and M98T receptor mutations on ligand affinity” value in data set [5] is “two-fold decrease in affinity”.
With `O=P(O)(O)OP(=O)(O)O` [pyrophosphate], in data set [3], the “effect of phosphates resembling nucleotide phosphate groups on the complex” value was “did not cause disruption of the complex”.

B1: Nb37: nanobody, SEQ ID NO: 4, binds the Gsα subunit (protein, listed as Lama glama)
VHH: QVQLQESGGGFVQAGGSLRLSCAASGSIFSKNTMAWFRQAPGKERELVAASPTGGSTAYKDSVKGRFTISRDSAKNTVLLQMNVLKPEDTAVYYCHLRQNNRGSWFHYWGQGTQVTVSSHHHHHHEPEA
B1: the “binding to the β2AR:Gs:BI167107 ternary complex by analytical gel filtration” value (shortened to “binding … by analytical gel filtration”) in [6] is given as “further confirmed”. The “protection of the ternary complex from dissociation by GTPγS” value (“protection of the ternary complex” below) in data set [7] was “insensitive to GTPγS treatment”; in [7] (listed as 37), “protect the β2AR:Gs:BI167107 complex from dissociation”. Also, the “effect on GTPγS binding to Gαs alone” value in data set [8] is given as “blocks GTPγS binding to Gsα alone in a dose dependent manner; also recorded: inhibits GTPγS binding to Gαs”.

B2: Nb36: nanobody, SEQ ID NO: 3, binds Gs (protein, listed as Lama glama)
VHH: QVQLQESGGGSVQAGGSLRLSCTVSGTIFSVTVMGWYRQAPGKQRELVAGFTNTRNTNYVDSVKGRFTISKDSAKNTMYLQMNSLKPEDTAVYYCNVRRWGGTNWNDYWGQGTQVTVSSHHHHHHEPEA
In the case of B2, in [6], the “binding … by analytical gel filtration” value was “further confirmed” and the “epitope on the Gs heterotrimer relative to Nb37 (size exclusion chromatography)” value is listed as “bind separate epitopes”. Further, the “protection of the ternary complex” value in [7] is given as “less sensitive to GTPγS treatment”. Moreover, the “protection of the ternary complex” value in data set [7] (listed as 36) is on record as “protect the β2AR:Gs:BI167107 complex from dissociation”.

B3: Nb35: nanobody, SEQ ID NO: 1; binds Gs at the interface of Gα and Gβ subunits (protein, listed as Lama glama)
VHH: QVQLQESGGGLVQPGGSLRLSCAASGFTFSNYKMNWVRQAPGKGLEWVSDISQSGASISYTGSVKGRFTISRDNAKNTLYLQMNSLKPEDTAVYYCARCPAPFTRDCFDVTSTTYAYRGQGTQVTVSSHHHHHHEPEA
On to B3, for which, in data set [6], the “binding … by analytical gel filtration” value is listed as “further confirmed” and the “epitope on the Gs heterotrimer relative to Nb37 (size exclusion chromatography)” value was “bind separate epitopes”. Moreover, the “protection of the ternary complex” value in [7] is “protects the complex from dissociation by GTPγS; also recorded: insensitive to GTPγS treatment”. Further, the “protection of the ternary complex” value in [7] (listed as 35) was “protect the β2AR:Gs:BI167107 complex from dissociation”. The “effect on GTPγS binding to Gαs alone” value in data set [8] is “has no effect on GTPγS binding; also recorded: does not affect GTPγS binding to Gαs”. Moreover, in [9], the “effect on GTPγS binding to the Gsαβγ heterotrimer” value was “blocks GTPγS binding to the free Gsαβγ heterotrimer in a dose dependent manner; also recorded: inhibits GTPγS binding to the Gsαβγ heterotrimer”. For the same molecule, the “stability of the V2R:Gs:AVP complex with nanobody in SEC” value in [4] (complex of V2R, Gs, Nb35 and AVP) was “demonstrated the stability of this complex in SEC”.
